These results are taken from PMC8215210.

For the data set, the target named is T1, His-OpaR (Vibrio parahaemolyticus RIMD2210633) (UniProt Q79YV4).
T1 sequence: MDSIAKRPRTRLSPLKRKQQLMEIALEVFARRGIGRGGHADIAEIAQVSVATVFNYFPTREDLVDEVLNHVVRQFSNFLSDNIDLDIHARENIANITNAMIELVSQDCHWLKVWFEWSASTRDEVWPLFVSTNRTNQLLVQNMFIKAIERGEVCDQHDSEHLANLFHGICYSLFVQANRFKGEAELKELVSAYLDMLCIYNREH
In words: DNase I footprinting. The note with it: Buffer, salt, pH and temperature not given (as in Zhang et al., 2012, 2017); EMSA on 6% polyacrylamide gel; footprinting with 0, 6, 9, 12 pmol His-OpaR.
Regarding “CCACTCCTCTTACAAGAATGAGGACGACATCAAGAAAATATTAAAAAATGGATAATTAACCATCGGTTAAGCGTAATAACTAATGACGCTATAAAGTTTTTTGTTATTATCAGTTAATTGTCAGTAGTACATGGACTTAACCGTAGTCGTTTCATGGGAATCTTGGAATCCGATATT (double strand) [VP0699 footprint probe]”, the binding result is recorded as “binds”.
“GCTTTTCTAGGCACAAAATGACTTTAGAATGGATTAATGCGAAAGCAATTAAAAAAGTGTGAGTAACGGCTGCAAACTATTGATTTCAATGTCAGGTAACGTACGTGTTCTTGAATGATTAATGACATTTTTATTCATATCATTAAACCAACATGCGGCAAAACCCGCTAACTTTGCACCATATACATCCGTCGTGAGGTGGTCACCAACATGCAAAATGTTTTCGGCAGGTAAATCGAGGAACTGCT (double strand) [VP2979 footprint probe]”: the binding entry is listed as “binds”.
On to “GCCATATTCCAAACTCGTTGTGCCTGCCTTTTCAAGAACTGCTGGATAACGGTTACATCAAACCGAACTCAGAATTGAAACAAGCATTTAGCGAACTGTCGCTATATAATGACAATTCAATCATTTTCAGCTGTGGCTCAGGTGTGACTGCCTGTATTTTATTGTTGGCAGCTCATCAACTTGGCTTACGCA (double strand) [VPA1176 footprint probe]”, for which the binding result is given as “binds”.
Next, “CCATTAAGTGACTTTAGTTCCACTTTTTTAGCTTATTTGATGACATAAGCAACAGTTTCGCCTCCAACCAATAAACAACTGAATACATATTAAAATATTCATTAAATTGACTATTTTTATGATAAACGCTTAATAATAGTTTTATCTATAAACAAACAGTGAGCTTTGTTATAAATTCATTAAAAATTTAACTTTGTATTAATTAGAAAATTCAGCGTCATATTTGTTCAACTGCGA (double strand) [scrA footprint probe]”: “binds”; “CTTACCTTGGCGTACCTCTTGCCAATCCGTACTTTCAAATAAATCGCCTTGTCCTTGCATCCCGTTGCCTATTTAAACCATAAAAATTTCAGATAATTATTACCTTTGCAAAGGCTATTGGTTATTCTTGTAGATAATAAGAATTTTAACAATAAAAGAATAATTCTCGTAGTAACGGACGAGCTAGTGGGGAGCTAATGCGTTATTCACCCAGAAAGCAGT (double strand) [VPA0198 footprint probe]”: “binds”; “AGACAATCACACCGATAGCCAGTAAGAAAATCATCACAAAAGGGATGAGTACAGCAGTACGTAGTGTAATTTGAGTCTTTGCAGTAGACATTGCCTAGTCACATTAGGGATGGTTCACCTTAATTGTACTGACATTTCTGTTAATATCGAGCGCTAAGCACTCTCATTGTTAACTCACTGCTTAAGTGACGGTCAGTACAACTCTTTTAACTTTCTGGTTAGCGTATTGCGTCCCCAGCCTAATACTTTAGCGGCATCTTGCTTGTGACCTTTAGTGTG (double strand) [VP0117 footprint probe]”: “binds”.
